*1 amine or outer side, *2 acyl side, *3 side chain or, on linkers, in order; H or OH if unused. Where no end group is shown, it is not given here. Side-chain parts run from the residue outwards. [ ]: non-standard residue; d: D form. The star is where a group is joined. C16 diacid = O=C(O)CCCCCCCCCCCCCCC(=O)*; γGlu = O=C(O)[C@H](CCC(=O)[*:2])N[*:1]; Palmitoyl = CCCCCCCCCCCCCCCC(=O)*; Decanoyl = CCCCCCCCCC(=O)*; Aib = CC(C)(N)C(=O)O
T1: human glucose-dependent insulinotropic polypeptide receptor (human, UniProt P48546 22-466)
T1 sequence (looked up): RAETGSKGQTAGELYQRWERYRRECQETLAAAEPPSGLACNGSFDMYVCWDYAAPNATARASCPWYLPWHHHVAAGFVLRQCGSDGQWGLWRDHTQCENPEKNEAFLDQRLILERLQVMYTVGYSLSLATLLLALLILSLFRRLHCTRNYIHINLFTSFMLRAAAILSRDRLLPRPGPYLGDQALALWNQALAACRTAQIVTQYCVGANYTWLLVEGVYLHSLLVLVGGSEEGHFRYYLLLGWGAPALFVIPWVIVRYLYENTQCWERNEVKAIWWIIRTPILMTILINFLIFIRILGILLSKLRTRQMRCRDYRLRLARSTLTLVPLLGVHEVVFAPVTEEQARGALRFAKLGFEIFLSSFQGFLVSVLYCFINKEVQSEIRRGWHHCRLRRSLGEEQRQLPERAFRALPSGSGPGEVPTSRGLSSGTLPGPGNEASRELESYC

T2: human glucagon-like peptide-2 receptor (human, UniProt O95838 1-553)
T2 sequence (looked up): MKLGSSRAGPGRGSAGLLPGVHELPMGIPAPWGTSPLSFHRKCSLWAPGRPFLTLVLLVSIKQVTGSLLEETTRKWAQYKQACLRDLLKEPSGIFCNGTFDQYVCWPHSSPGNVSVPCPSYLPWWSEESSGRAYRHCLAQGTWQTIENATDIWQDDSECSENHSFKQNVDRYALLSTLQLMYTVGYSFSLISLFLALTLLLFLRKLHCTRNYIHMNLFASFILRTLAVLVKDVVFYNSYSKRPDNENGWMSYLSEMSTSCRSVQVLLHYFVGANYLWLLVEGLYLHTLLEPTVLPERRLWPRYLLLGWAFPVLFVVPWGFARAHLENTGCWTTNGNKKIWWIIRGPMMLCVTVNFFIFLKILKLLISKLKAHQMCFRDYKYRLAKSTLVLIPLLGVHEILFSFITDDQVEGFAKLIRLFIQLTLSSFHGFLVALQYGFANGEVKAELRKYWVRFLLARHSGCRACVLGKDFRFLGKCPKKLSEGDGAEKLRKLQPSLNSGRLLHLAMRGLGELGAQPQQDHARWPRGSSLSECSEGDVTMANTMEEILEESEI

B1: Compound no. 42 (peptide)
peptide: {C16 diacid}-H[Aib]DGTFISDYST[Aib]LDNLAAKDFINWLIQTKITKNDWKHNITQ-OH
B2: Compound no. 44 (peptide)
peptide: Decanoyl-H[Aib]DGTFISDYST[Aib]LDNLAARDFINWLIQTKITK-OH
SMILES: CCCCCCCCCC(=O)N[C@@H](Cc1c[nH]cn1)C(=O)NC(C)(C)C(=O)N[C@@H](CC(=O)O)C(=O)NCC(=O)N[C@H](C(=O)N[C@@H](Cc1ccccc1)C(=O)N[C@H](C(=O)N[C@@H](CO)C(=O)N[C@@H](CC(=O)O)C(=O)N[C@@H](Cc1ccc(O)cc1)C(=O)N[C@@H](CO)C(=O)N[C@H](C(=O)NC(C)(C)C(=O)N[C@@H](CC(C)C)C(=O)N[C@@H](CC(=O)O)C(=O)N[C@@H](CC(N)=O)C(=O)N[C@@H](CC(C)C)C(=O)N[C@@H](C)C(=O)N[C@@H](C)C(=O)N[C@@H](CCCNC(=N)N)C(=O)N[C@@H](CC(=O)O)C(=O)N[C@@H](Cc1ccccc1)C(=O)N[C@H](C(=O)N[C@@H](CC(N)=O)C(=O)N[C@@H](Cc1c[nH]c2ccccc12)C(=O)N[C@@H](CC(C)C)C(=O)N[C@H](C(=O)N[C@@H](CCC(N)=O)C(=O)N[C@H](C(=O)N[C@@H](CCCCN)C(=O)N[C@H](C(=O)N[C@H](C(=O)N[C@@H](CCCCN)C(=O)O)[C@@H](C)O)[C@@H](C)CC)[C@@H](C)O)[C@@H](C)CC)[C@@H](C)CC)[C@@H](C)O)[C@@H](C)CC)[C@@H](C)O
B3: Compound no. 33 (peptide)
peptide: H[Aib]DGTFISDYK([γGlu-Palmitoyl])T[Aib]LDALAARDFIEWLIQTKITK-OH
modifications: N-terminus assumed
SMILES: CCCCCCCCCCCCCCCC(=O)N[C@@H](CCC(=O)NCCCC[C@H](NC(=O)[C@H](Cc1ccc(O)cc1)NC(=O)[C@H](CC(=O)O)NC(=O)[C@H](CO)NC(=O)[C@@H](NC(=O)[C@H](Cc1ccccc1)NC(=O)[C@@H](NC(=O)CNC(=O)[C@H](CC(=O)O)NC(=O)C(C)(C)NC(=O)[C@@H](N)Cc1c[nH]cn1)[C@@H](C)O)[C@@H](C)CC)C(=O)N[C@H](C(=O)NC(C)(C)C(=O)N[C@@H](CC(C)C)C(=O)N[C@@H](CC(=O)O)C(=O)N[C@@H](C)C(=O)N[C@@H](CC(C)C)C(=O)N[C@@H](C)C(=O)N[C@@H](C)C(=O)N[C@@H](CCCNC(=N)N)C(=O)N[C@@H](CC(=O)O)C(=O)N[C@@H](Cc1ccccc1)C(=O)N[C@H](C(=O)N[C@@H](CCC(=O)O)C(=O)N[C@@H](Cc1c[nH]c2ccccc12)C(=O)N[C@@H](CC(C)C)C(=O)N[C@H](C(=O)N[C@@H](CCC(N)=O)C(=O)N[C@H](C(=O)N[C@@H](CCCCN)C(=O)N[C@H](C(=O)N[C@H](C(=O)N[C@@H](CCCCN)C(=O)O)[C@@H](C)O)[C@@H](C)CC)[C@@H](C)O)[C@@H](C)CC)[C@@H](C)CC)[C@@H](C)O)C(=O)O
B4: Compound no. 41 (peptide)
peptide: {C16 diacid}-H[Aib]EGTFISDYST[Aib]LDALAARDFINWLIQTKITKNDWKHNITQ-OH
B5: Compound no. 31 (peptide)
peptide: H[Aib]DGTFISDYK([γGlu-Decanoyl])TILDKLAARDFIEWLIATKITK-OH
modifications: N-terminus assumed
SMILES: CCCCCCCCCC(=O)N[C@@H](CCC(=O)NCCCC[C@H](NC(=O)[C@H](Cc1ccc(O)cc1)NC(=O)[C@H](CC(=O)O)NC(=O)[C@H](CO)NC(=O)[C@@H](NC(=O)[C@H](Cc1ccccc1)NC(=O)[C@@H](NC(=O)CNC(=O)[C@H](CC(=O)O)NC(=O)C(C)(C)NC(=O)[C@@H](N)Cc1c[nH]cn1)[C@@H](C)O)[C@@H](C)CC)C(=O)N[C@H](C(=O)N[C@H](C(=O)N[C@@H](CC(C)C)C(=O)N[C@@H](CC(=O)O)C(=O)N[C@@H](CCCCN)C(=O)N[C@@H](CC(C)C)C(=O)N[C@@H](C)C(=O)N[C@@H](C)C(=O)N[C@@H](CCCNC(=N)N)C(=O)N[C@@H](CC(=O)O)C(=O)N[C@@H](Cc1ccccc1)C(=O)N[C@H](C(=O)N[C@@H](CCC(=O)O)C(=O)N[C@@H](Cc1c[nH]c2ccccc12)C(=O)N[C@@H](CC(C)C)C(=O)N[C@H](C(=O)N[C@@H](C)C(=O)N[C@H](C(=O)N[C@@H](CCCCN)C(=O)N[C@H](C(=O)N[C@H](C(=O)N[C@@H](CCCCN)C(=O)O)[C@@H](C)O)[C@@H](C)CC)[C@@H](C)O)[C@@H](C)CC)[C@@H](C)CC)[C@@H](C)CC)[C@@H](C)O)C(=O)O
B6: Compound no. 32 (peptide)
peptide: H[Aib]DGTFISDYK([γGlu-Palmitoyl])TILDNLAARDFINWLIETKITK-OH
modifications: N-terminus assumed
SMILES: CCCCCCCCCCCCCCCC(=O)N[C@@H](CCC(=O)NCCCC[C@H](NC(=O)[C@H](Cc1ccc(O)cc1)NC(=O)[C@H](CC(=O)O)NC(=O)[C@H](CO)NC(=O)[C@@H](NC(=O)[C@H](Cc1ccccc1)NC(=O)[C@@H](NC(=O)CNC(=O)[C@H](CC(=O)O)NC(=O)C(C)(C)NC(=O)[C@@H](N)Cc1c[nH]cn1)[C@@H](C)O)[C@@H](C)CC)C(=O)N[C@H](C(=O)N[C@H](C(=O)N[C@@H](CC(C)C)C(=O)N[C@@H](CC(=O)O)C(=O)N[C@@H](CC(N)=O)C(=O)N[C@@H](CC(C)C)C(=O)N[C@@H](C)C(=O)N[C@@H](C)C(=O)N[C@@H](CCCNC(=N)N)C(=O)N[C@@H](CC(=O)O)C(=O)N[C@@H](Cc1ccccc1)C(=O)N[C@H](C(=O)N[C@@H](CC(N)=O)C(=O)N[C@@H](Cc1c[nH]c2ccccc12)C(=O)N[C@@H](CC(C)C)C(=O)N[C@H](C(=O)N[C@@H](CCC(=O)O)C(=O)N[C@H](C(=O)N[C@@H](CCCCN)C(=O)N[C@H](C(=O)N[C@H](C(=O)N[C@@H](CCCCN)C(=O)O)[C@@H](C)O)[C@@H](C)CC)[C@@H](C)O)[C@@H](C)CC)[C@@H](C)CC)[C@@H](C)CC)[C@@H](C)O)C(=O)O
B7: Compound no. 34 (peptide)
peptide: Ac-H[Aib]DGTFISDYK([γGlu-Palmitoyl])T[Aib]LDNLAARDFINWLIQTKITK-OH
SMILES: CCCCCCCCCCCCCCCC(=O)N[C@@H](CCC(=O)NCCCC[C@H](NC(=O)[C@H](Cc1ccc(O)cc1)NC(=O)[C@H](CC(=O)O)NC(=O)[C@H](CO)NC(=O)[C@@H](NC(=O)[C@H](Cc1ccccc1)NC(=O)[C@@H](NC(=O)CNC(=O)[C@H](CC(=O)O)NC(=O)C(C)(C)NC(=O)[C@H](Cc1c[nH]cn1)NC(C)=O)[C@@H](C)O)[C@@H](C)CC)C(=O)N[C@H](C(=O)NC(C)(C)C(=O)N[C@@H](CC(C)C)C(=O)N[C@@H](CC(=O)O)C(=O)N[C@@H](CC(N)=O)C(=O)N[C@@H](CC(C)C)C(=O)N[C@@H](C)C(=O)N[C@@H](C)C(=O)N[C@@H](CCCNC(=N)N)C(=O)N[C@@H](CC(=O)O)C(=O)N[C@@H](Cc1ccccc1)C(=O)N[C@H](C(=O)N[C@@H](CC(N)=O)C(=O)N[C@@H](Cc1c[nH]c2ccccc12)C(=O)N[C@@H](CC(C)C)C(=O)N[C@H](C(=O)N[C@@H](CCC(N)=O)C(=O)N[C@H](C(=O)N[C@@H](CCCCN)C(=O)N[C@H](C(=O)N[C@H](C(=O)N[C@@H](CCCCN)C(=O)O)[C@@H](C)O)[C@@H](C)CC)[C@@H](C)O)[C@@H](C)CC)[C@@H](C)CC)[C@@H](C)O)C(=O)O
B8: Compound no. 46 (peptide)
peptide: Palmitoyl-HADGTFISDYSTILDNLAARDFINWLLAQKITK
B9: Compound no. 40 (peptide)
peptide: {C16 diacid}-H[Aib]DGTFISDYST[Aib]LDNLAARDFINWLIQTKITKNDWKHNITQ-OH
B10: Compound no. 2 (peptide)
peptide: Palmitoyl-HADGTFISDYSTILDNLAARDFINWLIQTKIT
B11: Compound no. 39 (peptide)
peptide: {C16 diacid}-HADGTFISDYST[Aib]LDNLAARDFINWLIQTKITKNDWKHNITQ
B12: Compound no. 38 (peptide)
peptide: Ac-H[Aib]DGTFISDYK([γGlu-Palmitoyl])T[Aib]LDNLAARDFINWLIQTKITKNDWKHNITQ-OH

Target: T1, human glucose-dependent insulinotropic …
Experiment: cell-based or functional assay

Efficacy GIPR | EC50 (nM) GIPR | Binder
91% |  | B1
110% |  | B2
101% |  | B3
91% |  | B4
89% |  | B5
89% |  | B6
75% | 10 nM | B7
98% |  | B8
94% | 1 nM | B9
80% |  | B10
99% |  | B11
81% |  | B12

Target: T2, human glucagon-like peptide-2 receptor
Experiment: cell-based or functional assay

Efficacy GLP-2R | logEC50 GLP-2R | EC50 (nM) GLP-2R | Binder
93% |  |  | B1
100% |  |  | B2
97% |  |  | B3
74% | 8.8 |  | B4
90% |  |  | B5
84% | 8 | 10 nM | B6
103% |  |  | B7
82% |  |  | B8
96% | 9 |  | B9
59% |  |  | B10
78% | 9 | 1 nM | B11
89% |  |  | B12

Reference: patent US20250304643A1 (BAINAN BIOTECH, published 2025)
